Experiment [1] addresses T1, full-length MUC1 (human, UniProt P15941 24-1255, limits assumed).
T1 construct: also called full-length MUC1 Receptor; Mucin 1 precursor
The experiment can be described thus: co-immunoprecipitation gel stripped and re-probed with an anti-MUC1* (PSMGFR) antibody.

Experiment [2] deals with T1, full-length MUC1. The experiment in a line: co-immunoprecipitation with Ab5 from human iPS and HES cell lysates, Western blot for NME7.

T1 sequence (P15941 other isoform, or with tags, fused parts or gaps limits assumed): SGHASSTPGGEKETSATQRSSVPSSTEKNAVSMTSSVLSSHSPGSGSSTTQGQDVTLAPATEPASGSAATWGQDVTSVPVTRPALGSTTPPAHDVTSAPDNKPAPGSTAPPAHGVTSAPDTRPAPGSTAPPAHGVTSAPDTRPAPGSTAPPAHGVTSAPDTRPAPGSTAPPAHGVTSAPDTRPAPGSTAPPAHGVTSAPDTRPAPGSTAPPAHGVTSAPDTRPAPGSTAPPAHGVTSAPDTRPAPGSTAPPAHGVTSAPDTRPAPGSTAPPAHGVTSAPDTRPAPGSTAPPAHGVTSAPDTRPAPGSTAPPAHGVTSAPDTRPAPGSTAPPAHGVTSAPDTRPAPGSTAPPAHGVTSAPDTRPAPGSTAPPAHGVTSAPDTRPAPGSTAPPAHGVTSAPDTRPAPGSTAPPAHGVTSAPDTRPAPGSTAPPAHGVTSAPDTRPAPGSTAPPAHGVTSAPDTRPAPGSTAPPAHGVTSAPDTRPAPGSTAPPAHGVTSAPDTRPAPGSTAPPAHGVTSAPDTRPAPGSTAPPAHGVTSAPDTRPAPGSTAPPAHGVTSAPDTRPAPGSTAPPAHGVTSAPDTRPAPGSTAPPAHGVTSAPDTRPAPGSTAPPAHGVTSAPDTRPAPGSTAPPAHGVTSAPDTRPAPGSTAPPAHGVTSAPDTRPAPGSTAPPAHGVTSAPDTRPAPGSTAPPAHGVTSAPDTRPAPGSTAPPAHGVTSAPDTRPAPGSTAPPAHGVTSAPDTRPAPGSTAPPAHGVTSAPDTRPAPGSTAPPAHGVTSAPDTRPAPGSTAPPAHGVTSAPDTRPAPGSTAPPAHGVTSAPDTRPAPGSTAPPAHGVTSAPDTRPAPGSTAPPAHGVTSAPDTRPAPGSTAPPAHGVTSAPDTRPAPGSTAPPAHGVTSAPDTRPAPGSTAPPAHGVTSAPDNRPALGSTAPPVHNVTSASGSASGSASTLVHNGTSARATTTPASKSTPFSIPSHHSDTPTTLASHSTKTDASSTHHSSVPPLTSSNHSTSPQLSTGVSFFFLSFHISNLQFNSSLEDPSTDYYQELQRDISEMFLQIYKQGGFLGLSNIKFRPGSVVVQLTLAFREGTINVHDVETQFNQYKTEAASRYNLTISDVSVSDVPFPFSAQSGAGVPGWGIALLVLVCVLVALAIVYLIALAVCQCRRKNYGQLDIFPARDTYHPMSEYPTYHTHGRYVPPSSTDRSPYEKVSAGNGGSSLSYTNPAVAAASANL

B1: NME7AB (ligand)
chain: MEKTLALIKPDAISKAGEIIEIINKAGFTITKLKMMMLSRKEALDFHVDHQSRPFFNELIQFITTGPIIAMEILRDDAICEWKRLLGPANSGVARTDASESIRALFGTDGIRNAAHGPDSFASAAREMELFFPSSGGCGPANTAKFTNCTCCIVKPHAVSEGLLGKILMAIRDAGFEISAMQMFNMDRVNVEEFYEVYKGVVTEYHDMVTEMYSGPCVAMEIQQNNATKTFREFCGPADPEIARHLRPGTLRAIFGKTKIQNAVHCTDLPEDGLLEVQYFFKILDN
notes: In the co-immunoprecipitations and Western blots this is the endogenous 33 kDa species of cell lysates; also called human NME7-AB; 33 kDa NME7-reactive species
B1: in the experiment with full-length MUC1 [1], the binding result is “no binding”.

B2: full-length NME7, 42 kDa (other, UniProt Q9Y5B8 1-376, looked up)
chain: MNHSERFVFIAEWYDPNASLLRRYELLFYPGDGSVEMHDVKNHRTFLKRTKYDNLHLEDLFIGNKVNVFSRQLVLIDYGDQYTARQLGSRKEKTLALIKPDAISKAGEIIEIINKAGFTITKLKMMMLSRKEALDFHVDHQSRPFFNELIQFITTGPIIAMEILRDDAICEWKRLLGPANSGVARTDASESIRALFGTDGIRNAAHGPDSFASAAREMELFFPSSGGCGPANTAKFTNCTCCIVKPHAVSEGLLGKILMAIRDAGFEISAMQMFNMDRVNVEEFYEVYKGVVTEYHDMVTEMYSGPCVAMEIQQNNATKTFREFCGPADPEIARHLRPGTLRAIFGKTKIQNAVHCTDLPEDGLLEVQYFFKILDN
notes: Endogenous 42 kDa protein in cell lysates; also called native NME7
Consider B2, for which, in the experiment with full-length MUC1 [2], the binding result is recorded as “no binding”.

B3: NME7-X1 (ligand)
chain: MMMLSRKEALDFHVDHQSRPFFNELIQFITTGPIIAMEILRDDAICEWKRLLGPANSGVARTDASESIRALFGTDGIRNAAHGPDSFASAAREMELFFPSSGGCGPANTAKFTNCTCCIVKPHAVSEGLLGKILMAIRDAGFEISAMQMFNMDRVNVEEFYEVYKGVVTEYHDMVTEMYSGPCVAMEIQQNNATKTFREFCGPADPEIARHLRPGTLRAIFGKTKIQNAVHCTDLPEDGLLEVQYFFKILDN
notes: Alternative splice isoform of NME7; In the blots it is the endogenous 30 kDa species of cell lysates; also called human NME7-X1; 30 kDa NME7-reactive species
Consider B3, for which the binding result with full-length MUC1 [1] is listed as “no binding”.

Source of the values: patent US20180263964A1 (MINERVA BIOTECHNOLOGIES, published 2018).
